This is an account of results in paper PMC3362203 (Nature structural & molecular biology, 2011).

Data set [1] deals with 1:1 RP105 N402Q–MD-1 complex.
In data set [2] the target is bovine 1:1 sRP105–MD-1 complex (building block of the 2:2 complex) (bovine). Kind of data set: crystal structure.
Data set [3] has the same target. In words: SEC. (In general: Size exclusion chromatography separates by hydrodynamic size, large species first.)
The data set “SEC” deals with the molecule itself. In words: SEC.

By stoichiometry N is commonly meant a count of units in the complex or per binding partner.

With 1:1 RP105 N402Q–MD-1 complex, the stoichiometry N in data set [1] turned out to be 2.

On to “bovine 1:1 sRP105–MD-1 complex (building block of the 2:2 complex)”, for which the stoichiometry N in data set [2] and in data set [3] was 2 throughout.

B1: human 1:1 sRP105–MD-1 complex (complex)
chain 1: WDQMCIEKEANKTYNCENLGLSEIPDTLPNTTEFLEFSFNFLPTIHNRTFSRLMNLTFLDLTRCQINWIHEDTFQSHHQLSTLVLTGNPLIFMAETSLNGPKSLKHLFLIQTGISNLEFIPVHNLENLESLYLGSNHISSIKFPKDFPARNLKVLDFQNNAIHYISREDMRSLEQAINLSLNFNGNNVKGIELGAFDSTIFQSLNFGGTPNLSVIFNGLQNSTTQSLWLGTFEDIDDEDISSAMLKGLCEMSVESLNLQEHRFSDISSTTFQCFTQLQELDLTATHLKGLPSGMKGLNLLKKLVLSVNHFDQLCQISAANFPSLTHLYIRGNVKKLHLGVGCLEKLGNLQTLDLSHNDIEASDCCSLQLKNLSHLQTLNLSHNEPLGLQSQAFKECPQLELLDLAFTRLHINAPQSPFQNLHFLQVLNLTYCFLDTSNQHLLAGLPVLRHLNLKGNHFQDGTITKTNLLQTVGSLEVLILSSCGLLSIDQQAFHSLGKMSHVDLSHNSLTCDSIDSLSHLKGIYLNLAANSINIISPRLLPILSQQSTINLSHNPLDCTCSNIHFLTWYKENLHKLEGSEETTCANPPSLRGVKLSDVKLSCG
chain 2: GGGGKAWPTHVVCSDSGLEVLYQSCDPLQDFGFSVEKCSKQLKSNINIRFGIILREDIKELFLDLALMSQGSSVLNFSYPICEAALPKFSFCGRRKGEQIYYAGPVNNPEFTIPQGEYQVLLELYTEKRSTVACANATIMCS
Turning to B1, the “stoichiometry N” value in the data set “SEC” was 2.

B2: mouse 1:1 sRP105–MD-1 complex (wild type) (complex)
chain 1: TTSSDQKCIEKEVNKTYNCENLGLNEIPGTLPNSTECLEFSFNVLPTIQNTTFSRLINLTFLDLTRCQIYWIHEDTFQSQHRLDTLVLTANPLIFMAETALSGPKALKHLFFIQTGISSIDFIPLHNQKTLESLYLGSNHISSIKLPKGFPTEKLKVLDFQNNAIHYLSKEDMSSLQQATNLSLNLNGNDIAGIELGAFDSAVFQSLNFGGTQNLLVIFKGLKNSTIQSLWLGTFEDMDDEDISPAVFEGLCEMSVESINLQKHYFFNISSNTFHCFSGLQELDLTATHLSELPSGLVGLSTLKKLVLSANKFENLCQISASNFPSLTHLSIKGNTKRLELGTGCLENLENLRELDLSHDDIETSDCCNLQLRNLSHLQSLNLSYNEPLSLKTEAFKECPQLELLDLAFTRLKVKDAQSPFQNLHLLKVLNLSHSLLDISSEQLFDGLPALQHLNLQGNHFPKGNIQKTNSLQTLGRLEILVLSFCDLSSIDQHAFTSLKMMNHVDLSHNRLTSSSIEALSHLKGIYLNLASNRISIILPSLLPILSQQRTINLRQNPLDCTCSNIYFLEWYKENMQKLEDTEDTLCENPPLLRGVRLSDVTLSCS
chain 2: DHGSENGWPKHTACNSGGLEVVYQSCDPLQDFGLSIDQCSKQIQSNLNIRFGIILRQDIRKLFLDITLMAKGSSILNYSYPLCEEDQPKFSFCGRRKGEQIYYAGPVNNPGLDVPQGEYQLLLELYNENRATVACANATVTSS
With B2, in “SEC”, the “stoichiometry N” value came out at 2.
